Km and kcat data for five proteins are collected here from PMC9813773, “LACC1 bridges NOS2 and polyamine metabolism in inflammatory macrophages” (Nature, 2022).

Substrate in data set [1]: NC(=O)NCCC[C@H](N)C(=O)O
In words: L-Orn formation by LC-QQQ-MS, Michaelis-Menten. It counts as biochemical, Homo sapiens. The following applies: 5-500 μM L-Cit, PBS pH 7.4, 1 μM ZnSO4, 37°C.

Substrate in data set [2]: NC(=O)NCCC[C@H](N)C(=O)O
As to the kind of experiment: L-Orn formation by LC-QQQ-MS, Michaelis-Menten. It counts as biochemical, Mus musculus. The following applies: 5-500 μM L-Cit, PBS pH 7.4, 1 μM ZnSO4, 37°C.

B1: hLACC1 (Homo sapiens) (protein)
chain: MAEAVLIDLFGLKLNSQKNCHQTLLKTLNAVQYHHAAKAKFLCIMCCSNISYERDGEQDNCEIETSNGLSALLEEFEIVSCPSMAATLYTIKQKIDEKNLSSIKVIVPRHRKTLMKAFIDQLFTDVYNFEFEDLQVTFRGGLFKQSIEINVITAQELRGIQNEIETFLRSLPALRGKLTIITSSLIPDIFIHGFTTRTGGISYIPTLSSFNLFSSSKRRDPKVVVQENLRRLANAAGFNVEKFYRIKTHHSNDIWIMGRKEPDSYDGITTNQRGVTIAALGADCIPIVFADPVKKACGVAHAGWKGTLLGVAMATVNAMIAEYGCSLEDIVVVLGPSVGPCCFTLPRESAEAFHNLHPACVQLFDSPNPCIDIRKATRILLEQGGILPQNIQDQNQDLNLCTSCHPDKFFSHVRDGLNFGTQIGFISIKE
notes: codon-optimized synthetic cDNA in pMAL-C5x (MBP fusion), E. coli BL21(DE3), amylose resin; tag cleavage not described
On to B1, for which, in data set [1], the Km – broadly, the concentration of substrate that gives half-maximal velocity – stood at 163.7 µM; the kcat (usually the number of substrate molecules converted per active site and unit of time at saturation) was 0.00567 s⁻¹.

B2: hLACC1 (Homo sapiens; C284R) (protein)
chain: MAEAVLIDLFGLKLNSQKNCHQTLLKTLNAVQYHHAAKAKFLCIMCCSNISYERDGEQDNCEIETSNGLSALLEEFEIVSCPSMAATLYTIKQKIDEKNLSSIKVIVPRHRKTLMKAFIDQLFTDVYNFEFEDLQVTFRGGLFKQSIEINVITAQELRGIQNEIETFLRSLPALRGKLTIITSSLIPDIFIHGFTTRTGGISYIPTLSSFNLFSSSKRRDPKVVVQENLRRLANAAGFNVEKFYRIKTHHSNDIWIMGRKEPDSYDGITTNQRGVTIAALGADRIPIVFADPVKKACGVAHAGWKGTLLGVAMATVNAMIAEYGCSLEDIVVVLGPSVGPCCFTLPRESAEAFHNLHPACVQLFDSPNPCIDIRKATRILLEQGGILPQNIQDQNQDLNLCTSCHPDKFFSHVRDGLNFGTQIGFISIKE
notes: as for B1
Consider B2, for which, in data set [1], the Km is 155.8 µM and the kcat is 0.00275 s⁻¹.

B3: hLACC1 (Homo sapiens; I254V) (protein)
chain: MAEAVLIDLFGLKLNSQKNCHQTLLKTLNAVQYHHAAKAKFLCIMCCSNISYERDGEQDNCEIETSNGLSALLEEFEIVSCPSMAATLYTIKQKIDEKNLSSIKVIVPRHRKTLMKAFIDQLFTDVYNFEFEDLQVTFRGGLFKQSIEINVITAQELRGIQNEIETFLRSLPALRGKLTIITSSLIPDIFIHGFTTRTGGISYIPTLSSFNLFSSSKRRDPKVVVQENLRRLANAAGFNVEKFYRIKTHHSNDVWIMGRKEPDSYDGITTNQRGVTIAALGADCIPIVFADPVKKACGVAHAGWKGTLLGVAMATVNAMIAEYGCSLEDIVVVLGPSVGPCCFTLPRESAEAFHNLHPACVQLFDSPNPCIDIRKATRILLEQGGILPQNIQDQNQDLNLCTSCHPDKFFSHVRDGLNFGTQIGFISIKE
notes: as for B1
On to B3, for which, in data set [1], the Km stood at 181.3 µM and the kcat is 0.00433 s⁻¹.

B4: hLACC1 (Homo sapiens; K38E) (protein)
chain: MAEAVLIDLFGLKLNSQKNCHQTLLKTLNAVQYHHAAEAKFLCIMCCSNISYERDGEQDNCEIETSNGLSALLEEFEIVSCPSMAATLYTIKQKIDEKNLSSIKVIVPRHRKTLMKAFIDQLFTDVYNFEFEDLQVTFRGGLFKQSIEINVITAQELRGIQNEIETFLRSLPALRGKLTIITSSLIPDIFIHGFTTRTGGISYIPTLSSFNLFSSSKRRDPKVVVQENLRRLANAAGFNVEKFYRIKTHHSNDIWIMGRKEPDSYDGITTNQRGVTIAALGADCIPIVFADPVKKACGVAHAGWKGTLLGVAMATVNAMIAEYGCSLEDIVVVLGPSVGPCCFTLPRESAEAFHNLHPACVQLFDSPNPCIDIRKATRILLEQGGILPQNIQDQNQDLNLCTSCHPDKFFSHVRDGLNFGTQIGFISIKE
notes: as for B1
B4: in data set [1], the Km turned out to be 81.58 µM and the kcat is 0.0051 s⁻¹.

B5: mLACC1 (Mus musculus) (protein)
chain: MAEAVLIDLSGLQLNAQKNCHETLLETLDGIHYHHAPKAKFLCIICCRNASKEKDGEYGLCELEAGNGFSRLAGKFETVSHPCLAASLYTIKQKIDEENLSCIKVIVPEHRKLLMKAYVGQLFTEVYEFEFEDLQGAWRDSLLKPSTGINVTTTQELEDIQHEIETYLRSLPALKGDLTIVTSPLIPDNFLHGFTTRTGGISSVPTLSSLNLFSSSKRRDPKVVVQENVRRLANAAGFNAEKFYRIKTDHASEVWVMGKKEPESYDGIVTNQRGVTITALGADCIPIVFADPVKKACGVAHSGWKGTLLGVAMATVNAMIAEYGCDVEDIIVVLGPSVGSCCFTLPKESAVSFHSLHPSCVRHFDSPRPYVDIRKATRILLERGGILPQNIQDQKEDLDLCTSCHPEKFFSHVRDGLNFGTQIGFISLRE
notes: as for B1
With B5, in data set [2], the Michaelis-Menten constant (Km) turned out to be 117.2 µM and the kcat came out at 0.0055 s⁻¹.
